Data reported in the supplement of paper PMC10065799, “High-throughput profiling of sequence recognition by tyrosine kinases and SH2 domains using bacterial peptide display” (eLife, 2023).

Columns and labels:
AncSZ = test: phosphorylation enrichment, bacterial display (enrichment ratio); higher = better substrate or ligand; peptides without Tyr show the background
EPHB1 = EPHB1 (UniProt P54762); test: as above
EPHB2 = EPHB2 (UniProt P29323); test: as above
FGFR1 = FGFR1 (UniProt P11362); test: as above
FGFR1, sequence (P11362 whole entry, looked up): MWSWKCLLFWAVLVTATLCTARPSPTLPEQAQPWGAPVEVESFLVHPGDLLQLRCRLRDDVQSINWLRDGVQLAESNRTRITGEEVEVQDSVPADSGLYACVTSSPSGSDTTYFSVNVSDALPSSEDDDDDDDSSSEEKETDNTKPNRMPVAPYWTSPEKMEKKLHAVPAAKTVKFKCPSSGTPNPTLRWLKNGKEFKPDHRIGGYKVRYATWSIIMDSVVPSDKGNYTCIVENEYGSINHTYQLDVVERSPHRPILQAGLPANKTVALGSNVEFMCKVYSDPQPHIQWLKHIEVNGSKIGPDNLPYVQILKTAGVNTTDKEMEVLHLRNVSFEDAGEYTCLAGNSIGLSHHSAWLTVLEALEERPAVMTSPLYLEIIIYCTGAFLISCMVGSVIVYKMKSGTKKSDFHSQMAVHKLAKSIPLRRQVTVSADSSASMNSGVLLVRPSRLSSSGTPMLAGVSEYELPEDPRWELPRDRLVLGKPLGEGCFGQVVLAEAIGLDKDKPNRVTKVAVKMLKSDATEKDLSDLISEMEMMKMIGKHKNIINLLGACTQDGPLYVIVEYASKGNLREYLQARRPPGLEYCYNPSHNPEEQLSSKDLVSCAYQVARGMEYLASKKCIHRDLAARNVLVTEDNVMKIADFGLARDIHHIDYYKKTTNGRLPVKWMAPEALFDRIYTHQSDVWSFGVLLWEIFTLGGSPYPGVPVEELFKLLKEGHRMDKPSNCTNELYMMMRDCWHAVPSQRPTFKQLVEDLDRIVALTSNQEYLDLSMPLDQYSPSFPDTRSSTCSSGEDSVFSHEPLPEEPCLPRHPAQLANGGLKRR

FGFR3 = FGFR3 (UniProt P22607); test: as above
FGFR3, sequence (P22607 whole entry, looked up): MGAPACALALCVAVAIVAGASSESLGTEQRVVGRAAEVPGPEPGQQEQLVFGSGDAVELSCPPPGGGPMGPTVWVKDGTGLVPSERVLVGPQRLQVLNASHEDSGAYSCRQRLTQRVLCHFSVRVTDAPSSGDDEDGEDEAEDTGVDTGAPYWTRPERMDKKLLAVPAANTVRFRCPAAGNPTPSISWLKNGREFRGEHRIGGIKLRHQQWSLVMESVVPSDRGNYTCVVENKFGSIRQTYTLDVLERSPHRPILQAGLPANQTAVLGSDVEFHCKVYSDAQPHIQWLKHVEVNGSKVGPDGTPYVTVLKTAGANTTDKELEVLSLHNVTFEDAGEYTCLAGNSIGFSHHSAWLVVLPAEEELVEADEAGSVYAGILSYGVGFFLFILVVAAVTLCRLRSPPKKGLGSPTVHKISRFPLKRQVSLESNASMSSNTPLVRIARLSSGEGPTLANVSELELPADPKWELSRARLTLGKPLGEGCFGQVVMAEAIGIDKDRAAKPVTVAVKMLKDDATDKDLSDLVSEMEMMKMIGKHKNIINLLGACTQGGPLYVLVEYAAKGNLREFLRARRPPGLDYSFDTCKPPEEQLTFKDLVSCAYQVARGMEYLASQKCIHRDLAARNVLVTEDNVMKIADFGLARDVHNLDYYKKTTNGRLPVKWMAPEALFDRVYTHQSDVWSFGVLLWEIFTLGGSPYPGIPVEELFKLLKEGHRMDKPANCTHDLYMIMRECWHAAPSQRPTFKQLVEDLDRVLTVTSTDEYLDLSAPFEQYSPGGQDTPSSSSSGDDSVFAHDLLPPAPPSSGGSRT

Fer (mouse) = test: as above
Fes = Fes (UniProt P07332); test: as above
Fyn = Fyn (UniProt P06241); test: as above
Fyn, sequence (P06241 whole entry, looked up): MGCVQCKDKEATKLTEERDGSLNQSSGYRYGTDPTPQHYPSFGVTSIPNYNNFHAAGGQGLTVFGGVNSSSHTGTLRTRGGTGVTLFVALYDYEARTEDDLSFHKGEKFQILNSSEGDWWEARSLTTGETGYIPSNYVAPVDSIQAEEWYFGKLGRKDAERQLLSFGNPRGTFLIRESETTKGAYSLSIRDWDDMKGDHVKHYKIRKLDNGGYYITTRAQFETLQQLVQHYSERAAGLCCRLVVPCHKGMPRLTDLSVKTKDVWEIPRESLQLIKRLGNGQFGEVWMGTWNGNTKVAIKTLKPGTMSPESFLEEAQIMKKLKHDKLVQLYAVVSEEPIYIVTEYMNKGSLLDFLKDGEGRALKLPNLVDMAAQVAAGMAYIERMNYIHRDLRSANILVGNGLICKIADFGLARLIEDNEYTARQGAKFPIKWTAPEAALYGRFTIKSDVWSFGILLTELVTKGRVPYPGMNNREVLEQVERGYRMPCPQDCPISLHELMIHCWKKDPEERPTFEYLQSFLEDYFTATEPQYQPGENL

Hck = Hck (UniProt P08631); test: as above
Hck, sequence (P08631 whole entry, looked up): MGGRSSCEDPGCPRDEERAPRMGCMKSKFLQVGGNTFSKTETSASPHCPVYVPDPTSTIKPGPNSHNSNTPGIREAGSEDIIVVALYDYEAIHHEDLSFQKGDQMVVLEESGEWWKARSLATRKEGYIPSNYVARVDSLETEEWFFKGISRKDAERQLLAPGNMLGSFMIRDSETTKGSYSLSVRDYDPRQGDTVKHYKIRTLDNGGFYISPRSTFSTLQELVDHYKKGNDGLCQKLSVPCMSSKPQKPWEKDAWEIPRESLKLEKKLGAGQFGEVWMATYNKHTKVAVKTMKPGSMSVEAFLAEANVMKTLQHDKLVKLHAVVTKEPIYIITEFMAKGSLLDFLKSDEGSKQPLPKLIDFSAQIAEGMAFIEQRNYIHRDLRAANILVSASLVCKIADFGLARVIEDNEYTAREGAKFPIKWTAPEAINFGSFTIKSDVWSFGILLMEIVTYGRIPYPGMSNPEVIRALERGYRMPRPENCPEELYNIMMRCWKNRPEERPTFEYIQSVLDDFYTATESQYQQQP

Jak2 = Jak2 (UniProt O60674); test: as above
Jak2, sequence (O60674 whole entry, looked up): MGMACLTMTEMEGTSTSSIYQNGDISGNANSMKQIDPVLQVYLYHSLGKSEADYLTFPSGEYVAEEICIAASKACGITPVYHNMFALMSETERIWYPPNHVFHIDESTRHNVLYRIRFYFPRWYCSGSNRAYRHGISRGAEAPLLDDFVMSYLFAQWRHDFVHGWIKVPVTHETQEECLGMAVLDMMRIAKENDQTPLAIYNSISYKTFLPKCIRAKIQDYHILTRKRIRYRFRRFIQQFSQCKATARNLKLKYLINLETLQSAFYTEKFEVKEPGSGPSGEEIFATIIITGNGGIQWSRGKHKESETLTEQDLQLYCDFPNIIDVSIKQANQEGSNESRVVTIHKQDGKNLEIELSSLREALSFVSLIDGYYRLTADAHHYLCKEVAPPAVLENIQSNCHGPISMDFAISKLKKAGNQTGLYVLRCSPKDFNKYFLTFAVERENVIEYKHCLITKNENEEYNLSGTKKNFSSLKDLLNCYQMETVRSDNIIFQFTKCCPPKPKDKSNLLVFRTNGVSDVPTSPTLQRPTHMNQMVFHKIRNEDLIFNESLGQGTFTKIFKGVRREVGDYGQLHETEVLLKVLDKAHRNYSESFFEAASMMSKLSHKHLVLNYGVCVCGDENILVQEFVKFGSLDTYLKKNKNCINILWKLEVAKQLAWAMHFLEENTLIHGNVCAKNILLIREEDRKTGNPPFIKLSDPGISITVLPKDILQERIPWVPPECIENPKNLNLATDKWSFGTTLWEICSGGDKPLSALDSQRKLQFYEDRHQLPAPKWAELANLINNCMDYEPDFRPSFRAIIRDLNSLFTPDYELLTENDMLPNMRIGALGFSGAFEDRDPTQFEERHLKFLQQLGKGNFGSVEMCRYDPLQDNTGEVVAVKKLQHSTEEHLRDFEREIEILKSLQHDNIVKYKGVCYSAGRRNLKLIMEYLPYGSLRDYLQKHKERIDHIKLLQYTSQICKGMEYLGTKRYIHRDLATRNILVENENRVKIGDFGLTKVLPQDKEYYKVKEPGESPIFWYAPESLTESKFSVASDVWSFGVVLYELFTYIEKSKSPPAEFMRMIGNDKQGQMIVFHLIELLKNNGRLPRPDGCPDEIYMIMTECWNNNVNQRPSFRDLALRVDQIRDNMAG

MERTK = MERTK (UniProt Q12866); test: as above
c-Abl (mouse) = test: as above
c-Src = test: as above
Grb2 SH2 = Grb2 SH2 (UniProt P62993); test: SH2 binding enrichment of the phosphorylated peptide, bacterial display (enrichment ratio); higher = better substrate or ligand; peptides without Tyr show the background
Grb2 SH2, sequence (P62993 whole entry, looked up): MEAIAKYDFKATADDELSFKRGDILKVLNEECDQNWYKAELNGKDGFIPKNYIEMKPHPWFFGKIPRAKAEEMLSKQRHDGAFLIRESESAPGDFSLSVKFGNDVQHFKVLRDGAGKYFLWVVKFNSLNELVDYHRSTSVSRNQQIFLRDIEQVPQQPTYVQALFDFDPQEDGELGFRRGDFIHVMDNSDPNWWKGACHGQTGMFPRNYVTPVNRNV

SHP2-C SH2 = test: as above
c-Src SH2 = test: as above
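Throughout, for SH2 binding enrichment of the phosphorylated peptide, bacterial display: peptide library displayed on the E. coli surface as eCPX fusions, selected cells deep-sequenced, score is each peptide's frequency after selection divided by its frequency in the input.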
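Throughout, for phosphorylation enrichment, bacterial display: 11-residue human phosphosite peptides and single-mutation variants displayed on the E. coli surface, counted by deep sequencing, each peptide's frequency after selection divided by its frequency in the unselected input library; frequency after pTyr selection over input frequency; kinase dosed for 20-30% of maximal phosphorylation in three min.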

EPHB1, sequence (P54762 whole entry, looked up): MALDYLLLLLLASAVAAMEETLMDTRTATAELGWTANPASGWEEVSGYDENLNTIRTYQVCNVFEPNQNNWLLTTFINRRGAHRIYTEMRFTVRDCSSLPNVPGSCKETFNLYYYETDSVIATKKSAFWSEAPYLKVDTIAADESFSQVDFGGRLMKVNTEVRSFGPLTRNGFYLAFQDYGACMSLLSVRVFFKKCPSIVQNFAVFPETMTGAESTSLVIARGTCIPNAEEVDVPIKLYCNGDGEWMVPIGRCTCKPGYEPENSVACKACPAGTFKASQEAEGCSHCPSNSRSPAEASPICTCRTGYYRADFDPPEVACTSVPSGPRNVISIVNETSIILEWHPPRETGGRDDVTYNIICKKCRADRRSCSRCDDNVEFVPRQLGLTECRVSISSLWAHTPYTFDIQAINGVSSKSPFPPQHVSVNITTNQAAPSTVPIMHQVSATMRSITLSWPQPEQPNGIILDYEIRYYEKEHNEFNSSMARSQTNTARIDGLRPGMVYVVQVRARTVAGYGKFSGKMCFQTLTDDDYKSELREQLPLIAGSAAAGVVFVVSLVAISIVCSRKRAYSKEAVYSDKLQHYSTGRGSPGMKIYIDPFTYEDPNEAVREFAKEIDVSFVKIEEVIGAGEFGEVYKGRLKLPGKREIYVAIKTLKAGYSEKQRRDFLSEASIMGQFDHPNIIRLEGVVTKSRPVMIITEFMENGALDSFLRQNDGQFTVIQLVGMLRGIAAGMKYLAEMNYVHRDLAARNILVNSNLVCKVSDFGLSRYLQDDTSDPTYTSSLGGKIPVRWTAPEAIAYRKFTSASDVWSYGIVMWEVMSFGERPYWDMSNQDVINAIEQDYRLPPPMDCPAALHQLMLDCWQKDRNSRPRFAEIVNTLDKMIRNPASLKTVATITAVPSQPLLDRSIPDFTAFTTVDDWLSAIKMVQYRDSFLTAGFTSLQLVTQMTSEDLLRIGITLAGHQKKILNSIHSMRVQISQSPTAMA

Sequence	phosphorylation enrichment (AncSZ)	phosphorylation enrichment (EPHB1)	phosphorylation enrichment (EPHB2)	phosphorylation enrichment (FGFR1)	phosphorylation enrichment (FGFR3)	phosphorylation enrichment (Fer (mouse))	phosphorylation enrichment (Fes)	phosphorylation enrichment (Fyn)	phosphorylation enrichment (Hck)	phosphorylation enrichment (Jak2)	phosphorylation enrichment (MERTK)	phosphorylation enrichment (c-Abl (mouse))	phosphorylation enrichment (c-Src)	SH2 binding enrichment (Grb2 SH2)	SH2 binding enrichment (SHP2-C SH2)	SH2 binding enrichment (c-Src SH2)
LMIKEYLTKEL [BAG3_Y457_E455K]	0.867	0.524	0.612	0.437	0.72	0.491	1.36	0.469	0.571	0.896	0.411	0.666	0.353	1.03	1	0.621
LMLVLYGRIFR [HTR1A_Y215]	1.84	0.646	0.958	0.372	0.809	0.768	1.24	0.715	0.495	1.48	0.475	0.791	0.644	1.54	1.25	1.42
LNECHYGALIG [BPGM_Y92_R90C]	0.996	0.682	0.878	0.701	0.886	1.35	1.38	4.07	2.93	0.885	0.741	1.4	3.61	0.681	0.446	0.334
LNERHYGALIG [BPGM_Y92]	0.534	0.319	0.469	0.42	0.47	0.459	0.609	0.514	0.561	0.571	0.536	0.461	0.639	0.871	0.74	0.613
LNSFIYSLRNR [OR1A1_Y288_P285S]	1.3	0.617	0.653	0.618	0.671	0.693	2.02	2.42	3.1	1.02	0.733	0.866	4.01	0.732	0.578	0.59
LPHVIYCRLWR [SMAD2_Y128]	1.05	1.76	0.758	0.414	0.555	0.434	0.814	1.66	2.31	0.822	0.871	1.47	2.05	0.991	0.723	0.679
LPKVSCVKAID [GLRA1_Y307_Y307C]	1.19	0.794	0.711	0.734	1.14	0.577	1.38	0.655	0.695	0.945	0.501	0.803	0.386	0.713	0.35	0.697
LPKVSYVKAID [GLRA1_Y307]	0.629	0.402	0.411	0.423	0.433	0.34	0.652	0.391	0.434	0.563	0.542	0.444	0.338	0.868	0.768	0.459
LPPGTYPSDFT [UNC5B_Y511_A516T]	1.58	0.694	0.536	0.717	0.85	0.403	1.25	0.82	0.613	0.571	1.04	1.78	0.697	0.885	0.533	0.445
LQTYHYHGHSM [PDHA1_Y289_R288H]	0.974	0.689	0.636	1.16	0.963	0.75	0.943	0.671	0.742	1.52	0.911	0.559	0.916	1.36	2	1.29
LRNIDYHRLDG [ATRX_Y2083_Y2084H]	0.497	0.42	0.405	0.511	0.617	0.571	0.606	0.342	0.33	0.632	0.379	0.521	0.297	0.725	1.25	0.714
LRVKMYNFLRS [ADGRG7_Y760]	2.63	1.41	2.15	1.71	2.58	1.08	3.22	1.75	1.59	1.47	1.19	1.25	0.868	1.24	0.623	1.1
LSDGPYSNPFE [EPOR_Y485_YF]	1.47	0.547	0.628	0.491	0.614	0.822	1.16	1.77	0.843	0.862	0.534	0.701	0.856	0.82	0.486	1.91
LSDGPYSSPYE [EPOR_Y485_N487S]	2.3	1.2	0.95	0.421	1.61	0.831	1.39	0.882	0.739	1.2	0.523	1.18	1.09	0.808	0.762	3.98
LSIQCYLRASD [HMGCS2_Y262_L266S]	3.81	3.37	3.31	1.99	5.23	2.44	4.92	2.73	2.46	2.95	1.2	1.87	0.998	0.732	0.795	0.443
LSRDVYEEDSF [RET_Y900_YF]	1.77	1.07	0.908	0.813	0.89	0.946	2.02	0.573	0.875	1.7	0.819	1.57	0.828	0.778	0.805	0.769
LSTPEYGPKLK [TBC1D14_Y46_A43T]	0.673	0.47	0.496	0.465	0.506	0.461	0.574	0.527	0.417	0.569	0.532	0.57	0.494	0.796	0.733	0.445
LTAEVYFPSIK [C5orf64_Y60]	1.78	0.966	0.906	0.866	1.88	0.963	2.04	1.02	1.06	0.996	0.648	1.64	0.75	0.763	0.708	0.453
LTERDYSFVTT [ACTG2_Y199_G198D]	2.56	2.38	3.51	7.67	4.74	2.82	1.6	1.93	1.62	1.27	1.26	0.888	0.977	0.792	1.37	0.678
LTRDIYKNDYY [ROS1_Y2110_A2106T]	2.28	2.15	2.79	5.83	3.61	1	1.88	1.82	1.48	2.28	0.839	1.21	2.86	1.35	0.906	1.53
LVQAEYWHDPI [PPT1_Y185]	1.48	0.677	0.487	3.89	2.98	0.644	1.48	0.58	0.593	1.18	0.591	1.36	0.61	0.824	0.638	1.11
LVRPPYSFSAL [FOXI1_Y126_YF]	0.602	0.385	0.46	0.395	0.434	0.479	0.618	0.419	0.423	0.553	0.363	0.465	0.409	0.809	0.562	0.478
LVRPPYSYSAL [FOXI1_Y126]	0.952	1.07	0.568	0.572	0.713	0.619	0.862	0.722	0.528	1.03	2.06	0.641	0.704	0.885	1.72	1.8
LWQTIYNLEAE [TNNT2_Y251_S249T]	1.56	1.3	0.894	1.15	1.13	0.855	2.22	10.9	5.88	1.73	0.735	1.21	8.82	1.03	0.773	0.823
MCTVDYLLRLQ [RYR1_Y3921_I3916M]	1.07	0.597	0.62	0.526	0.684	0.504	1.35	0.546	0.529	1.19	0.516	0.866	0.487	0.84	0.765	0.523
MDDDQYALLTA [EFCAB6_Y675_T680A]	1.35	0.547	0.722	1.21	1.2	0.665	1.35	0.647	0.77	1.15	0.592	0.871	0.608	0.761	0.702	0.689
MENFIYESMQF [CYP19A1_Y361_R365Q_YF]	1.81	8.07	5.77	0.888	0.759	16.1	6.34	9.33	7.84	1.04	6.46	4.06	7.14	0.679	0.691	0.448
MENFIYESMQY [CYP19A1_Y361_R365Q]	1.37	7.15	5.02	0.652	0.724	13.3	3.36	9.05	7.07	0.894	3.64	1.24	6.84	0.914	0.954	0.786
MEVEQYIFVKC [CYBB_Y324_G322E]	1.74	1.03	0.868	1.98	1.99	0.679	1.64	0.575	0.71	1.53	0.509	1.04	0.594	0.725	0.599	0.513
